Measurements taken from US20230220080A1 (EPIMAB BIOTHERAPEUTICS, published 2023).

B1: anti-hIL-20 mAb (clone 15D2) (antibody, V domains shown)
VH: QVQLVQSGAEVKRPGASVKVSCKASGYTFTNDIIHWVRQAPGQRLEWMGWINAGYGNTQYSQNFQDRVSITRDTSASTAYMELISLRSEDTAVYYCAREPLWFGESSPHDYYGMDVWGQGTTVTVSS
VL: AIQLTQSPSSLSASVGDRVTITCRASQGISSALAWYQQKPGKAPKLLIYDASSLESGVPSRFSGSGSGTDFTLTISSLQPEDFATYYCQQFNSYPLTFGGGTKVEIK
notes: parental mAb
B2: FIT014a Factor IX (Factor IX Ab)/Factor X (Factor X Ab) (bispecific antibody, human IgG4 S228P, kappa)
chain 1: DIQMTQSPSSLSASVGDRVTITCKASRNIERQLAWYQQKPGQAPELLIYQASRKESGVPDRFSGSRYGTDFTLTISSLQPEDIATYYCQQYSDPPLTFGGGTKVEIKRTVAAPSVFIFPPSDEQLKSGTASVVCLLNNFYPREAKVQWKVDNALQSGNSQESVTEQDSKDSTYSLSSTLTLSKADYEKHKVYACEVTHQGLSSPVTKSFNRGECQVQLVQSGSELKKPGASVKVSCKASGYTFTDNNMDWVRQAPGQGLEWMGDINTRSGGSIYNEEFQDRVIMTVDKSTDTAYMELSSLRSEDTATYHCARRKSYGYYLDEWGEGTLVTVSSASTKGPSVFPLAPCSRSTSESTAALGCLVKDYFPEPVTVSWNSGALTSGVHTFPAVLQSSGLYSLSSVVTVPSSSLGTQTYTCNVDHKPSNTKVDKRVESKYGPPCPPCPAPEFLGGPSVFLFPPKPKDTLMISRTPEVTCVVVDVSQEDPEVQFNWYVDGVEVHNAKTKPREEQYNSTYRVVSVLTVLHQDWLNGKEYKCKVSNKGLPSSIEKTISKAKGQPREPQVYTLPPSQEEMTKNQVSLTCLVKGFYPSDIAVEWESNGQPENNYKTTPPVLDSDGSFFLYSKLTVDKSRWQEGNVFSCSVMHEALHNHYTQESLSLSP
chain 2: QVQLVESGGGLVQPGGSLRLSCAASGFTFSYYDIQWVRQAPGKGLEWVSSISPSGQSTYYRREVKGRFTISRDNSKNTLYLQMNSLRAEDTAVYYCARRTGREYGGGWYFDYWGQGTLVTVSSASTKGPSVFPLAPSSKSTSGGTAALGCLVKDYFPEPVTVSWNSGALTSGVHTFPAVLQSSGLYSLSSVVTVPSSSLGTQTYICNVNHKPSNTKVDKKVEPKSC
chain 3: DIQMTQSPSSLSASVGDRVTITCKASRNIERQLAWYQQKPGQAPELLIYQASRKESGVPDRFSGSRYGTDFTLTISSLQPEDIATYYCQQYSDPPLTFGGGTKVEIKRTVAAPSVFIFPPSDEQLKSGTASVVCLLNNFYPREAKVQWKVDNALQSGNSQESVTEQDSKDSTYSLSSTLTLSKADYEKHKVYACEVTHQGLSSPVTKSFNRGEC
notes: leader left out; also called FIT-Ig 014a
B3: FIT14-Ig Factor IXa/Factor X (bispecific antibody, human IgG4 S228P, kappa)
chain 1: DIQMTQSPSSLSASVGDRVTITCKASRNIERQLAWYQQKPGQAPELLIYQASRKESGVPDRFSGSRYGTDFTLTISSLQPEDIATYYCQQYSDPPLTFGGGTKVEIKRTVAAPSVFIFPPSDEQLKSGTASVVCLLNNFYPREAKVQWKVDNALQSGNSQESVTEQDSKDSTYSLSSTLTLSKADYEKHKVYACEVTHQGLSSPVTKSFNRGECQVQLVQSGSELKKPGASVKVSCKASGYTFTDNNMDWVRQAPGQGLEWMGDINTRSGGSIYNEEFQDRVIMTVDKSTDTAYMELSSLRSEDTATYHCARRKSYGYYLDEWGEGTLVTVSSASTKGPSVFPLAPCSRSTSESTAALGCLVKDYFPEPVTVSWNSGALTSGVHTFPAVLQSSGLYSLSSVVTVPSSSLGTQTYTCNVDHKPSNTKVDKRVESKYGPPCPPCPAPEFLGGPSVFLFPPKPKDTLMISRTPEVTCVVVDVSQEDPEVQFNWYVDGVEVHNAKTKPREEQYNSTYRVVSVLTVLHQDWLNGKEYKCKVSNKGLPSSIEKTISKAKGQPREPQVYTLPPSQEEMTKNQVSLTCLVKGFYPSDIAVEWESNGQPENNYKTTPPVLDSDGSFFLYSKLTVDKSRWQEGNVFSCSVMHEALHNHYTQESLSLSP
chain 2: QVQLVESGGGLVQPGGSLRLSCAASGFTFSYYDIQWVRQAPGKGLEWVSSISPSGQSTYYRREVKGRFTISRDNSKNTLYLQMNSLRAEDTAVYYCARRTGREYGGGWYFDYWGQGTLVTVSSASTKGPSVFPLAPSSKSTSGGTAALGCLVKDYFPEPVTVSWNSGALTSGVHTFPAVLQSSGLYSLSSVVTVPSSSLGTQTYICNVNHKPSNTKVDKKVEPKSC
chain 3: DIQMTQSPSSLSASVGDRVTITCKASRNIERQLAWYQQKPGQAPELLIYQASRKESGVPDRFSGSRYGTDFTLTISSLQPEDIATYYCQQYSDPPLTFGGGTKVEIKRTVAAPSVFIFPPSDEQLKSGTASVVCLLNNFYPREAKVQWKVDNALQSGNSQESVTEQDSKDSTYSLSSTLTLSKADYEKHKVYACEVTHQGLSSPVTKSFNRGEC
notes: leader left out; also called FIT-Ig 014; FIT-Ig 14
B4: Factor IXa mAb (antibody, V domains shown)
VH: QVQLVESGGGLVQPGGSLRLSCAASGFTFSYYDIQWVRQAPGKGLEWVSSISPSGQSTYYRREVKGRFTISRDNSKNTLYLQMNSLRAEDTAVYYCARRTGREYGGGWYFDYWGQGTLVTVSS
VL: DIQMTQSPSSLSASVGDRVTITCKASRNIERQLAWYQQKPGQAPELLIYQASRKESGVPDRFSGSRYGTDFTLTISSLQPEDIATYYCQQYSDPPLTFGGGTKVEIK
notes: parental mAb; also called Factor IX mAb; mAb FIX
B5: Factor X mAb (antibody, V domains shown)
VH: QVQLVQSGSELKKPGASVKVSCKASGYTFTDNNMDWVRQAPGQGLEWMGDINTRSGGSIYNEEFQDRVIMTVDKSTDTAYMELSSLRSEDTATYHCARRKSYGYYLDEWGEGTLVTVSS
VL: DIQMTQSPSSLSASVGDRVTITCKASRNIERQLAWYQQKPGQAPELLIYQASRKESGVPDRFSGSRYGTDFTLTISSLQPEDIATYYCQQYSDPPLTFGGGTKVEIK
notes: parental mAb; also called mAb FX; Factor X Ab
B6: anti-IL-17 mAb (clone LY) (antibody, V domains shown)
VH: QVQLVQSGAEVKKPGSSVKVSCKASGYSFTDYHIHWVRQAPGQGLEWMGVINPMYGTTDYNQRFKGRVTITADESTSTAYMELSSLRSEDTAVYYCARYDYFTGTGVYWGQGTLVTVSS
VL: DIVMTQTPLSLSVTPGQPASISCRSSRSLVHSRGNTYLHWYLQKPGQSPQLLIYKVSNRFIGVPDRFSGSGSGTDFTLKISRVEAEDVGVYYCSQSTHLPFTFGQGTKLEIK
notes: parental mAb
B7: Anti-IL-17/IL-20 FIT1-Ig (bispecific antibody, human IgG1, kappa)
chain 1: not shown
chain 2: QVQLVQSGAEVKKPGSSVKVSCKASGYSFTDYHIHWVRQAPGQGLEWMGVINPMYGTTDYNQRFKGRVTITADESTSTAYMELSSLRSEDTAVYYCARYDYFTGTGVYWGQGTLVTVSSASTKGPSVFPLAPSSKSTSGGTAALGCLVKDYFPEPVTVSWNSGALTSGVHTFPAVLQSSGLYSLSSVVTVPSSSLGTQTYICNVNHKPSNTKVDKKVEPKSC
chain 3: not shown
notes: three-polypeptide FIT-Ig, no linker, human IgG1 Fc; described as tetravalent, so two copies of each chain
B8: Anti-IL-17/IL-20 FIT2-Ig (bispecific antibody, human IgG1, kappa)
chain 1: not shown
chain 2: QVQLVQSGAEVKKPGSSVKVSCKASGYSFTDYHIHWVRQAPGQGLEWMGVINPMYGTTDYNQRFKGRVTITADESTSTAYMELSSLRSEDTAVYYCARYDYFTGTGVYWGQGTLVTVSSASTKGPSVFPLAPSSKSTSGGTAALGCLVKDYFPEPVTVSWNSGALTSGVHTFPAVLQSSGLYSLSSVVTVPSSSLGTQTYICNVNHKPSNTKVDKKVEPKSC
chain 3: not shown
notes: three-polypeptide FIT-Ig with GSG linker; tetravalent
B9: Anti-IL-17/IL-20 FIT3-Ig (bispecific antibody, human IgG1, kappa)
chain 1: not shown
chain 2: QVQLVQSGAEVKKPGSSVKVSCKASGYSFTDYHIHWVRQAPGQGLEWMGVINPMYGTTDYNQRFKGRVTITADESTSTAYMELSSLRSEDTAVYYCARYDYFTGTGVYWGQGTLVTVSSASTKGPSVFPLAPSSKSTSGGTAALGCLVKDYFPEPVTVSWNSGALTSGVHTFPAVLQSSGLYSLSSVVTVPSSSLGTQTYICNVNHKPSNTKVDKKVEPKSC
chain 3: not shown
notes: three-polypeptide FIT-Ig with GGGGSGS linker; tetravalent
B10: FIT012b-Ig EGFR (panitumumab)/PD-L1 (1B12) (bispecific antibody, human IgG1, kappa)
chain 1: not shown
chain 2: QVQLQESGPGLVKPSETLSLTCTVSGGSVSSGDYYWTWIRQSPGKGLEWIGHIYYSGNTNYNPSLKSRLTISIDTSKTQFSLKLSSVTAADTAIYYCVRDRVTGAFDIWGQGTMVTVSSASTKGPSVFPLAPSSKSTSGGTAALGCLVKDYFPEPVTVSWNSGALTSGVHTFPAVLQSSGLYSLSSVVTVPSSSLGTQTYICNVNHKPSNTKVDKKVEPKSC
chain 3: not shown
notes: leader left out

What was measured:
recombinant human IL-20 [1] = molecular target: T1, recombinant human IL-20 (human, UniProt Q9NYY1 25-176); experiment: cell-based or functional assay
T1 sequence (looked up): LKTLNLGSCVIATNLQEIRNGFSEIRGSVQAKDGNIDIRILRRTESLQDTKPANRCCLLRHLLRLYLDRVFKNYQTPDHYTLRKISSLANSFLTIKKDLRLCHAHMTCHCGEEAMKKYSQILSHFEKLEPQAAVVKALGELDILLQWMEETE

recombinant human IL-20 [2] = molecular target: T1, recombinant human IL-20; experiment: SPR Biacore, Ig captured by anti-Fc, antigen injected
Description: (§1) The kinetics of FIT-Ig binding to rhIL-17 and rhIL-20 was determined by surface plasmon resonance (Table 5) with a Biacore X100 instrument (Biacore AB, Uppsala, Sweden) using HBS-EP (10 mM HEPES, pH 7.4, 150 mM NaCl, 3 mM EDTA, and 0.005% surfactant P20) at 25° C. Briefly, goat anti-human IgG Fcγ fragment specific polyclonal antibody (Pierce Biotechnology Inc, Rockford, Ill.) was directly immobilized across a CM5 research grade biosensor chip using a standard amine coupling kit according to manufacturer's instructions. Purified FIT-Ig samples were diluted in HEPES-buffered saline for capture across goat anti-human IgG Fc specific reaction surfaces and injected over reaction matrices at a flow rate of 5 μl/min. The association and dissociation rate constants, kon (M-1s-1) and koff (s-1) were determined under a continuous flow rate of 30 μL/min. […] The equilibrium dissociation constant (M) of the reaction between FIT-Ig and the target proteins was then calculated from the kinetic rate constants by the following formula: KD=koff/kon. Aliquots of antigen samples were also simultaneously injected over a blank reference and reaction CM surface to record and subtract any nonspecific binding background to eliminate the majority of the refractive index change and injection noise. Surfaces were regenerated with two subsequent 25 ml injections of 10 mM Glycine (pH 1.5) at a flow rate of 10 μL/min.

[3] = molecular target: T2, hFactor X (Enzyme Research Laboratory) (human, UniProt P00742 41-488, limits assumed); experiment: SPR Biacore X100, Ig captured by anti-Fc, 500 nM antigen
T2 construct: also called FX
Description: (§2) Affinity measurement by surface plasmon resonance: The kinetics of FIT-Ig binding to hFactor IX and hFactor X (Enzyme Research Laboratory) was determined by surface plasmon resonance with a Biacore X100 instrument (Biacore AB, Uppsala, Sweden) using HBS-EP (10 mM HEPES, pH 7.4, 150 mM NaCl, 3 mM EDTA, and 0.005% surfactant P20) at 25° C. Briefly, goat anti-human IgG Fc fragment specific polyclonal antibody (Pierce Biotechnology Inc, Rockford, Ill.) was directly immobilized across a CM5 research grade biosensor chip using a standard amine coupling kit according to manufacturer's instructions. Purified FIT-Ig samples were diluted in HEPES-buffered saline for capture across goat anti-human IgG Fc specific reaction surfaces and injected over reaction matrices at a flow rate of 5 μl/min. The association and dissociation rate constants, kon (M-1s-1) and koff (s-1) were determined under a continuous flow rate of 30 μL/min. Rate constants were derived by making kinetic binding measurements at 500 nM antigen concentrations. The equilibrium dissociation constant (M) of the reaction between FIT-Ig and the target proteins was then calculated from the kinetic rate constants by the following formula: KD=koff/kon. Aliquots of antigen samples were also simultaneously injected over a blank reference and reaction CM surface to record and subtract any nonspecific binding background to eliminate the majority of the refractive index change and injection noise. Surfaces were regenerated with two subsequent 25 ml injections of 10 mM Glycine (pH 1.5) at a flow rate of 10 μL/min. The anti-Fc antibody immobilized surfaces were completely regenerated and retained their full capture capacity over twelve cycles.

[4] = molecular target: T3, hFactor IX (Enzyme Research Laboratory) (human, UniProt P00740 47-461); experiment: as above
T3 construct: also called FIX
Description: as §2

Factor IXa = Factor IXa (UniProt P00740 47-461, limits assumed); experiment: method not stated
recombinant human IL-17 [5] = molecular target: T4, recombinant human IL-17 (human, UniProt Q16552 24-155); experiment: cell-based or functional assay
recombinant human IL-17 [6] = molecular target: T4, recombinant human IL-17; experiment: SPR Biacore, Ig captured by anti-Fc, antigen injected
Description: as §1

[7] = molecular target: T5, human PD-L1, recombinant protein (human, UniProt Q9NZQ7 19-239, limits assumed); experiment: method not stated
T5 construct: also called rhPD-L1; PD-L1-his
T5 sequence (Q9NZQ7 19-239 limits assumed): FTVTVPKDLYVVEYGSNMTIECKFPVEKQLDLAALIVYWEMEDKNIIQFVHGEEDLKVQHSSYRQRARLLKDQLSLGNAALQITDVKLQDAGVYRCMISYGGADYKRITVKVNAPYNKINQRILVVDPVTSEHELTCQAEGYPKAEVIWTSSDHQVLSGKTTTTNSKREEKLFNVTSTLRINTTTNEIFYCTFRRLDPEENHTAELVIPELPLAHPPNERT

T4 sequence (Q16552 24-155 limits assumed): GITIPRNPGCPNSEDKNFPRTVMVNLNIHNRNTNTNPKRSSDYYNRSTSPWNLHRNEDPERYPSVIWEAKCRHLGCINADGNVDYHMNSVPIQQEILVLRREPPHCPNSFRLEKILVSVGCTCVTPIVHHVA

Binder	Neutralization Potency IC50 (IL-20R+ BAF3 cell proliferation) (recombinant human IL-20 [1]) [pM]	Kd (recombinant human IL-20 [2]) [pM]	koff (recombinant human IL-20 [2]) [s⁻¹]	kon (recombinant human IL-20 [2]) [M⁻¹ s⁻¹]	Neutralization Potency IC50 (GROα production by Hs27 cells) (recombinant human IL-17 [5]) [pM]	Kd (recombinant human IL-17 [6]) [pM]	koff (recombinant human IL-17 [6]) [s⁻¹]	kon (recombinant human IL-17 [6]) [M⁻¹ s⁻¹]	also measured
B1	50	50	8.3e-05	1.7e+06					
B2									Kd [3]: 10000 pM; koff [3]: 0.000776 s⁻¹; kon [3]: 77500 M⁻¹ s⁻¹; Kd [4]: 9910 pM; koff [4]: 0.000332 s⁻¹; kon [4]: 33500 M⁻¹ s⁻¹
B3									Kd (Factor IXa): 9900 pM
B4									Kd (Factor IXa): 13000 pM; kon (Factor IXa): 27400 M⁻¹ s⁻¹; Kd [4]: 13000 pM; koff [4]: 0.000355 s⁻¹; kon [4]: 27400 M⁻¹ s⁻¹
B5									Kd [3]: 45100 pM; koff [3]: 0.00142 s⁻¹; kon [3]: 31500 M⁻¹ s⁻¹
B6					101	21.8	1.8e-05	824000	
B7	54	27.3	3.82e-05	1.4e+06	102	3.64	3.88e-05	1.07e+07	
B8	50	19.5	3.5e-05	1.8e+06	137	1.65	1.53e-05	9.24e+06	
B9	72	27.3	3.82e-05	1.4e+06	146	1.1	9.58e-06	8.71e+06	
B10									Kd [7]: 3890 pM
